From article PMC4203122, “Insights into transcriptional regulation of β-D-N-acetylhexosaminidase, an N-glycan-processing enzyme involved in ripening-associated fruit softening” come the findings set out here.

The target in series [1] is T1, RIN139N (GST-RIN, N-terminal) (Solanum lycopersicum, UniProt Q8S4L4 1-139). Kind of series: EMSA; 20 mM HEPES pH 7.5, 20% glycerol, 0.05 ug poly(dIdC), 2.5 mM EDTA, 2.5 mM DTT, 25 mM NaCl, plus 0.8 mM ZnCl2 (SlASR1) or 10 mM MgCl2 (RIN), 25 C, 30 min; 6% native PAGE 0.5x TBE. Particulars: protein: recombinant; tags: N-terminal GST; chain copies: 2; label: 5'-32P. A general note: A gel shift assay detects complexes by their altered migration in electrophoresis.
T1 sequence (Q8S4L4 entry or part of it): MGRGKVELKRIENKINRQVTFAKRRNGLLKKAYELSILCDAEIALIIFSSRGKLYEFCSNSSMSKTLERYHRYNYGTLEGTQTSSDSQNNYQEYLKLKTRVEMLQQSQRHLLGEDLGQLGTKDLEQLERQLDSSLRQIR

The target in series [2] is T1, RIN139N (GST-RIN, N-terminal). The series is described as follows: EMSA; intense signal; 20 mM HEPES pH 7.5, 20% glycerol, 0.05 ug poly(dIdC), 2.5 mM EDTA, 2.5 mM DTT, 25 mM NaCl, plus 0.8 mM ZnCl2 (SlASR1) or 10 mM MgCl2 (RIN), 25 C, 30 min; 6% native PAGE 0.5x TBE. The following applies: protein: recombinant; tags: N-terminal GST; chain copies: 2; label: 5'-32P.

B1: mCArG (26 bp, box 6 mutated) (dsDNA)
DNA 1: TTCATATTTCAAAATTTAATATTTTA
DNA 2: TAAAATATTAAATTTTGAAATATGAA
Take B1: the binding result in series [1] is reported as “no binding”.

B2: SlASR1 promoter CArG (26 bp) (dsDNA)
DNA 1: AAGCAAAACATAAAATTGACTTGAAT
DNA 2: ATTCAAGTCAATTTTATGTTTTGCTT
Regarding B2, the binding result in series [1] was “binds”.

B3: CArG (26 bp, box 6) (dsDNA)
DNA 1: TTCATATTCCAAAATTTGATATTTTA
DNA 2: TAAAATATCAAATTTTGGAATATGAA
For B3, the binding result in series [2] is “binds”.

B4: CArG box 5 (26 bp) (dsDNA)
DNA 1: CACAAAAACATAATTATGCTTCTTAC
DNA 2: GTAAGAAGCATAATTATGTTTTTGTG
With B4, the binding result in series [2] was “binds”.
